T1: human TGF-β 2 (Cat: CJ79, Novoprotein Scientific Inc.) (human) (UniProt P61812)
T1 sequence (looked up): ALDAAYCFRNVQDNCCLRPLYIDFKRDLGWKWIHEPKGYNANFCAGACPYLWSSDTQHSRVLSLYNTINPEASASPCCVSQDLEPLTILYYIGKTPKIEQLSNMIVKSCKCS

T2: human TGF-β 3 (Cat: CJ44, Novoprotein Scientific Inc.) (human) (UniProt P10600)
T2 sequence (looked up): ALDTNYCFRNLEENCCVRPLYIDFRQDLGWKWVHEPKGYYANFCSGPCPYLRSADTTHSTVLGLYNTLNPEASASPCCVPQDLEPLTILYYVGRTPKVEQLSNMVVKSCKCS


Tests used:
[1] = biological target: recombinant human TGF-β 1 protein (Cat: CA59, Novoprotein Scientific Inc.) (human) (UniProt P01137); assay: BLI (Octet QKe), binder captured on AHC biosensor, 1:1 fit
recombinant human TGF-β 1 protein (Cat: CA59, Novoprotein Scientific Inc.) (human), sequence (P01137 279-390 limits assumed): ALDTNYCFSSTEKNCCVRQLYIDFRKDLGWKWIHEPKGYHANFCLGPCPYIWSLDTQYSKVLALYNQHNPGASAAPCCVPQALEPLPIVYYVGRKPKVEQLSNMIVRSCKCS

[2] = biological target: T1, human TGF-β 2 (Cat: CJ79, Novoprotein Scientific Inc.) (human); assay: ELISA, target coated at 1 µg/ml, HRP-anti-human Fc detection
[3] = biological target: T2, human TGF-β 3 (Cat: CJ44, Novoprotein Scientific Inc.) (human); assay: as above
[4] = biological target: recombinant human TGF-β 1 protein (Cat: CA59, Novoprotein Scientific Inc.) (human) (UniProt P01137); assay: as above
[5] = biological target: T3, recombinant human PD-L1-his protein (Accession No.: NP_054862.1, 19 aa-238 aa) (human, UniProt Q9NZQ7 19-238); assay: BLI (Octet QKe), binder captured on AHC biosensor, analyte 60 nM, 1:1 fit
T3 construct: range 19-238; also called recombinant human PD-L1 extracellular domain protein; not shown: his tag
T3 sequence (Q9NZQ7 19-238 limits assumed): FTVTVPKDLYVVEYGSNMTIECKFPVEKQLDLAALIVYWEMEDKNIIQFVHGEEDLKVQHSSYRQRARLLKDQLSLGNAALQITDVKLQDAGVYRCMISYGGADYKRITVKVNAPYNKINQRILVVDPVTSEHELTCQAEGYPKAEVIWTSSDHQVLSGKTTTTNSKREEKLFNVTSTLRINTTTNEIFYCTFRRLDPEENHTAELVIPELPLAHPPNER
From the text: Antibody affinity was detected by an assay including capturing antibody Fc fragment with anti-human IgG Fc capture (AHC) biosensors on Octet QKe system instrument from Fortebio. […] The binding time was 300 s and the dissociation time was 300 s.

recombinant protein M7824 (anti-human PD-L1 antibody/TGF-β RII fusion protein control), sequence (HC): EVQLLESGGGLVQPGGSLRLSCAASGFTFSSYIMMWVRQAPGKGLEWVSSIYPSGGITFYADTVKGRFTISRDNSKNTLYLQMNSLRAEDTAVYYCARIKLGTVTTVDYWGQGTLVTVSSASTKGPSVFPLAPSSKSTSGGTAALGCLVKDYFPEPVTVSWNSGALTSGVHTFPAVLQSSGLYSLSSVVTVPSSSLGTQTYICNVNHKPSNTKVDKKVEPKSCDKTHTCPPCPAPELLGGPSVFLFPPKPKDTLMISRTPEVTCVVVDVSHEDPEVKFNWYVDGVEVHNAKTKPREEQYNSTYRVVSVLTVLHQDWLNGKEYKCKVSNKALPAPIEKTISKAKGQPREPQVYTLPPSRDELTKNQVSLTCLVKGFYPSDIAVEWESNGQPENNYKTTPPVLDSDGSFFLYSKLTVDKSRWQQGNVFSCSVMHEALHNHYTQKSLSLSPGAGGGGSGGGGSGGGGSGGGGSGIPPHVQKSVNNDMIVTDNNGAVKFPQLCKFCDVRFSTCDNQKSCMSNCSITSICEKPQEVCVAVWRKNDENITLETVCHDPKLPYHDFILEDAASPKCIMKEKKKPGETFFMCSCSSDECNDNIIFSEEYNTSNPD
recombinant protein M7824 (anti-human PD-L1 antibody/TGF-β RII fusion protein control), sequence (LC): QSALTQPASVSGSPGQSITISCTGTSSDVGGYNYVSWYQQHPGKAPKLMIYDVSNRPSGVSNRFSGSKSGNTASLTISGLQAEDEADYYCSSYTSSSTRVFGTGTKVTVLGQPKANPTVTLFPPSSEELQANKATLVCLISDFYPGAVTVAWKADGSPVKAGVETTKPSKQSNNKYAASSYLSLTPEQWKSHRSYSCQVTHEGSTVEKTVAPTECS

| Kd [1] [nM] | EC50 [2] [nM] | EC50 [3] [nM] | EC50 [4] [nM] | Kd [5] [nM] | Molecule |
| --- | --- | --- | --- | --- | --- |
| 2.81 | 18.2 | 0.981 | 0.472 | – | recombinant protein M7824 (anti-human PD-L1 antibody/TGF-β RII fusion protein control) |
| – | – | – | – | 0.433 | PD-L1 antibody H182-MUT4 (antibody, human IgG1, kappa, V domains shown, 25-30 for the anti-human PD-L1 antibody without naming H182-MUT4; also called MW22) VH: EVQLVQSGAEVKKPGATVKISCKVSGFNIKDIYMHWVQQAPGKGLEWMGRIDPANANTKYDPKFQDRVTITADTSTNTAYMELSSLRSEDTAVYYCASGQLGPLGFDYWGQGTTVTVSS VL: DIQMTQSPSSLSASVGDRVTITCRASQDISNYLNWYQQKPGKAPKLLLYYTSRLHSGVPSRFSGSGSGTDYTLTISSLQPEDFATYFCQQGAGRPYTFGGGTKVEIKR |
